Data taken from patent publication US7361741 (LIPTON DIVISION OF CONOPCO, dated 2008).
Residue numbers refer to the chain shown, from its start.

T1: Human Pancreatic Lipase (human, UniProt P16233 17-465, in ELISA and phage selections: biotin (EZ link NHS-biotin) on free NH2-groups, molar ratio biotin to lipase 15 to 1; not biotinylated in the enzyme activity assay)
T1 construct: mature; Natural enzyme purified from a human source; In ELISA it was captured as biotinylated HPL on coated streptavidin; also called HPL; biotinylated HPL
T1 sequence (looked up): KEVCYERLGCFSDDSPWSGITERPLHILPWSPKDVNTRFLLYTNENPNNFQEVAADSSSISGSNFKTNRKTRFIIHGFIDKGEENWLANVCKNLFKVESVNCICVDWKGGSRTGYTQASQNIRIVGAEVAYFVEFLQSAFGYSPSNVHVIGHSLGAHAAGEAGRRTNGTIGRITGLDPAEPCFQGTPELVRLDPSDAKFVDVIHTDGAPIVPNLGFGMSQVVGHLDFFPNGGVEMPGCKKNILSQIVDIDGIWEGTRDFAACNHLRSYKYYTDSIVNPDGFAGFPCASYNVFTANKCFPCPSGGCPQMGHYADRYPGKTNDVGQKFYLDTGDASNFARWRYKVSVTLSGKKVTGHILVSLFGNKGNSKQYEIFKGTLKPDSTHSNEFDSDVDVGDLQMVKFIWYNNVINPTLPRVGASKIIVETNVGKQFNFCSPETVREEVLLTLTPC

B1: HPL#11 (VHH)
VHH: QVQLQDSGGGLVQAGGSLRLSCAASGSIFSSDLMGWYRQAPGKEREAVARITRGGTTSYADSVKGRFTISRDNAKNTMYLQMNSLKPEDTAVYYCNARRSNYDRSWGDYWGQGTQVTVSS
notes: Llama VHH; E. coli form (pUR5084): VHH with hinge and C-terminal myc-tag; Yeast forms: PstI/BstEII VHH fragment, untagged (pUR5091) or with myc-tag and hexahistidine tail (pUR5099); also called anti-HPL VHH fragment HPL#11
B2: HPL#18 (VHH)
VHH: QVQLQDSGGGLVQAGGSLRLSCAASGTIGDIYTMAWHRQAPGKERELVASATESGSPNYADPVKGRFTISRDNGKLTVYLQMNSLKPEDTAVYYCNALIRRKFTSEYNEYWGQGTQVTVSS
notes: Llama VHH; E. coli form (pUR5086): with hinge and myc-tag; Yeast forms: PstI/BstEII fragment, untagged (pUR5092) or with myc/His6 tags (pUR5263); also called anti-HPL18; αHPL18
B3: HPL#13 (VHH)
VHH: QVQLQESGGGLVQAGGSLRLSCAASGTILSIIYMDWYRQTPGKQRELVGRITAGGSTNYADSAKGRFTISKDNAKNTVYLQMNSLKPEDTAVYYCNALITRWDKSVNDYWGQGTQVTVSS
notes: Llama VHH; E. coli form (pUR5082): with hinge and myc-tag; Yeast forms: PstI/BstEII fragment, untagged (pUR5090) or with myc/His6 tags (pUR5098); also called anti-HPL VHH fragment HPL#13
B4: HPL#15 (VHH)
VHH: QVQLQESGGGLVQAGGSLRLSCAASGSISSINVMGWFRQAPGKQRELVASITSGGSTNYADSLKGRFTISRDNAKNAVYLQMNNLKPEDTAVYYCNAHITPAGSSNYVYGYWGHGTKVTVSS
notes: Llama VHH; E. coli form (pUR5095): with hinge and myc-tag; Yeast forms: PstI/BstEII fragment, untagged (pUR1403) or with myc/His6 tags (pUR5097); also called anti-HPL VHH fragment HPL#15
B5: HPL#19 (VHH)
VHH: QVQLQDSGGGLVQTGGSLRLSCAASGPIGDVYLMGWYRQAPGKQREMVASITATGPPNYTDSVKGRFTISRDNDKNTEYLQMNNLKPEDTAVYYCNAQVRVRFSSDYTNYWGQGTQVTVSSEPKTPKPQP
notes: Llama VHH; E. coli form (pUR5087): with hinge and myc-tag; Yeast forms: PstI/BstEII fragment, untagged (pUR5093) or with myc/His6 tags (pUR5264); also called anti-HPL VHH fragment HPL#19
B6: HPL#12 (VHH)
VHH: QVQLQESGGGLVQAGGSLRLSCAASGSIGSIHTMGWYRQTPGKERDVVATIQDGGSTNYADSVKGRFTISRDNTLNTVYLQMNDLKPEDTAVYYCNADVRPYRTSRYLEVWGQGTLVTVSS
notes: Llama VHH produced in E. coli from the phagemid, with hinge and C-terminal myc-tag; also called anti-HPL VHH fragment HPL#12
B7: HPL#14 (VHH)
VHH: B6 VHH with K43T, T74I, D84S, Y94H, V110L
notes: Llama VHH; Yeast form (pUR5265): PstI/NotI fragment including the hinge region, followed by myc- and hexahistidine tags; also called anti-HPL VHH fragment HPL#14

Experiments:
[1] = target: T1, Human Pancreatic Lipase; assay: phage display selection in solution with biotinylated HPL, capture on streptavidin beads
Protocol: Free V_HH fragments were removed by precipitation of phage from the culture supernatant with PEG6000, thereby avoiding a disturbing competition between phage bound and free V_HH fragments. "In solution" capture of *E. coli* phage exposing HPL specific antibody fragments was performed with in vitro biotinylated lipase (EZ link NHS-biotin) covalently coupled to free NH_2-groups of the lipase according to the instructions of the supplier; the molar ratio between biotin and lipase was 15 to 1). For selection 15 nM and 40 nM Human Pancreatic Lipase was used in round one and 0.6 nM and 3 nM in round two. The carboxy terminal domain was prepared by proteolysis with chymotrypsin and purified with reversed phase HPLC. Lipase was biotinylated and used for selection of the immune library (combined short hinge and long hinge) at 15 and 70 nM during round one and at 1 and 3 and 15 nM during round two. During the binding phase of the selection "application conditions" (inclusion of 5.3 mM cholic acid and 36 mM deoxycholate) were used.

[2] = target: T1, Human Pancreatic Lipase; assay: ELISA, yeast culture medium on biotinylated HPL captured by streptavidin
Protocol: For ELISA in vitro biotinylated HPL (prepared as described in paragraph 2.2) was immobilised indirectly via streptavidin. Streptavidin was coated at 5 µg/ml in Phosphate Buffered Saline (PBS) during two hours at room temperature in MAXISORB plates (NUNC). The coat solution was removed and, after washing with 0.05 vol % Tween-20 in PBS (PBST), the wells were blocked during 30 minutes at room temperature with a 4 wt % skimmed milk solution made in PBS. Biotinylated HPL was captured by the coated streptavidin during 16 hours at 4° C. from a solution with a concentration of 2.5 µg/ml enzyme in PBST, followed by washing of the plate with PBTS to remove free biotinylated HPL.
Two clones from each construct were grown for 24 hours at 30° C. in YNB medium (0.67% Yeast Nitrogen without amino acids (Difio)) containing 2% glucose. For V_HH gene expression both pre-cultures were diluted 1/10 in 1 ml of YPD medium (1% yeast extract, 2% peptone, 2% glucose, 2% galactose) for induction of the GAL7 promoter and grown during 48 hours at 30° C. using 8 wells culture plates for cultivation. The V_HH production in the medium fraction of these clones was examined by analysis on a Coomassie blue stained polyacrylamide gel. Their functional characteristics were confirmed in ELISA on indirectly immobilised biotinylated HPL and in the lipase enzyme activity assay.

[3] = target: T1, Human Pancreatic Lipase; assay: ELISA on biotinylated HPL, E. coli and yeast produced VHH
[4] = target: T2, protein A (UniProt P38507 37-477); assay: affinity chromatography on protein A sepharose
T2 construct: also called protein A sepharose (Pharmacia)

Binder	binding result [2]	also measured
B1		binding result [1]: binds
B2	binds	
B3		binding result [3]: binds
B4	binds	
B5	binds	binding result [4]: no binding
B6		binding result [1]: binds
B7	binds	
